Reference: US20200283532A1 (CANCER RESEARCH TECHNOLOGY, published 2020)

Tests used:
Assay in all cases: flow cytometry, A375Ppuro cells
[1] = molecular target: Peptide (26) DTPA-nK(Biotin)…t-OH
[2] = molecular target: Peptide (22) DTPA-NK(Biotin)…-OH
[3] = molecular target: Peptide (24) DTPA-NK(Biotin)…-NH2
[4] = molecular target: Peptide (25) DTPA-nK(Biotin)…-OH
[5] = molecular target: Peptide (18) AcHN-NK(Biotin)…-NH2
[6] = molecular target: Peptide (16) AcHN-NK(Biotin)…-OH
[7] = molecular target: Peptide (23) DTPA-GNK(Biotin)…-OH

Measured: binding result

B1: integrin αvβ5 (receptor)
chain 1: FNLDVDSPAEYSGPEGSYFGFAVDFFVPSASSRMFLLVGAPKANTTQPGIVEGGQVLKCDWSSTRRCQPIEFDATGNRDYAKDDPLEFKSHQWFGASVRSKQDKILACAPLYHWRTEMKQEREPVGTCFLQDGTKTVEYAPCRSQDIDADGQGFCQGGFSIDFTKADRVLLGGPGSFYWQGQLISDQVAEIVSKYDPNVYSIKYNNQLATRTAQAIFDDSYLGYSVAVGDFNGDGIDDFVSGVPRAARTLGMVYIYDGKNMSSLYNFTGEQMAAYFGFSVAATDINGDDYADVFIGAPLFMDRGSDGKLQEVGQVSVSLQRASGDFQTTKLNGFEVFARFGSAIAPLGDLDQDGFNDIAIAAPYGGEDKKGIVYIFNGRSTGLNAVPSQILEGQWAARSMPPSFGYSMKGATDIDKNGYPDLIVGAFGVDRAILYRARPVITVNAGLEVYPSILNQDNKTCSLPGTALKVSCFNVRFCLKADGKGVLPRKLNFQVELLLDKLKQKGAIRRALFLYSRSPSHSKNMTISRGGLMQCEELIAYLRDESEFRDKLTPITIFMEYRLDYRTAADTTGLQPILNQFTPANISRQAHILLDCGEDNVCKPKLEVSVDSDQKKIYIGDDNPLTLIVKAQNQGEGAYEAELIVSIPLQADFIGVVRNNEALARLSCAFKTENQTRQVVCDLGNPMKAGTQLLAGLRFSVHQQSEMDTSVKFDLQIQSSNLFDKVSPVVSHKVDLAVLAAVEIRGVSSPDHVFLPIPNWEHKENPETEEDVGPVVQHIYELRNNGPSSFSKAMLHLQWPYKYNNNTLLYILHYDIDGPMNCTSDMEINPLRIKISSLQTTEKNDTVAGQGERDHLITKRDLALSEGDIHTLGCGVAQCLKIVCQVGRLDRGKSAILYVKSLLWTETFMNKENQNHSYSLKSSASFNVIEFPYKNLPIEDITNSTLVTTNVTWGIQPAPMPVPVWVIILAVLAGLLLLAVLVFVMYRMGFFKRVRPPQEEQEREQLQPHENGEGNSET
chain 2: GLNICTSGSATSCEECLLIHPKCAWCSKEDFGSPRSITSRCDLRANLVKNGCGGEIESPASSFHVLRSLPLSSKGSGSAGWDVIQMTPQEIAVNLRPGDKTTFQLQVRQVEDYPVDLYYLMDLSLSMKDDLDNIRSLGTKLAEEMRKLTSNFRLGFGSFVDKDISPFSYTAPRYQTNPCIGYKLFPNCVPSFGFRHLLPLTDRVDSFNEEVRKQRVSRNRDAPEGGFDAVLQAAVCKEKIGWRKDALHLLVFTTDDVPHIALDGKLGGLVQPHDGQCHLNEANEYTASNQMDYPSLALLGEKLAENNINLIFAVTKNHYMLYKNFTALIPGTTVEILDGDSKNIIQLIINAYNSIRSKVELSVWDQPEDLNLFFTATCQDGVSYPGQRKCEGLKIGDTASFEVSLEARSCPSRHTEHVFALRPVGFRDSLEVGVTYNCTCGCSVGLEPNSARCNGSGTYVCGLCECSPGYLGTRCECQDGENQSVYQNLCREAEGKPLCSGRGDCSCNQCSCFESEFGKIYGPFCECDNFSCARNKGVLCSGHGECHCGECKCHAGYIGDNCNCSTDISTCRGRDGQICSERGHCLCGQCQCTEPGAFGEMCEKCPTCPDACSTKRDCVECLLLHSGKPDNQTCHSLCRDEVITWVDTIVKDDQEAVLCFYKTAKDCVMMFTYVELPSGKSNLTVLREPECGNTPNAMTILLAVVGSILLVGLALLAIWKLLVTIHDRREFAKFQSERSRARYEMASNPLYRKPISTHTVDFTFNKFNKSYNGTVD
notes: whole, on cells
no binding (tested: 1000 nM): all assays above

B2: integrin αvβ8 (receptor)
chain 1: B1 chain 1
chain 2: EDNRCASSNAASCARCLALGPECGWCVQEDFISGGSRSERCDIVSNLISKGCSVDSIEYPSVHVIIPTENEINTQVTPGEVSIQLRPGAEANFMLKVHPLKKYPVDLYYLVDVSASMHNNIEKLNSVGNDLSRKMAFFSRDFRLGFGSYVDKTVSPYISIHPERIHNQCSDYNLDCMPPHGYIHVLSLTENITEFEKAVHRQKISGNIDTPEGGFDAMLQAAVCESHIGWRKEAKRLLLVMTDQTSHLALDSKLAGIVVPNDGNCHLKNNVYVKSTTMEHPSLGQLSEKLIDNNINVIFAVQGKQFHWYKDLLPLLPGTIAGEIESKAANLNNLVVEAYQKLISEVKVQVENQVQGIYFNITAICPDGSRKPGMEGCRNVTSNDEVLFNVTVTMKKCDVTGGKNYAIIKPIGFNETAKIHIHRNCSCQCEDNRGPKGKCVDETFLDSKCFQCDENKCHFDEDQFSSESCKSHKDQPVCSGRGVCVCGKCSCHKIKLGKVYGKYCEKDDFSCPYHHGNLCAGHGECEAGRCQCFSGWEGDRCQCPSAAAQHCVNSKGQVCSGRGTCVCGRCECTDPRSIGRFCEHCPTCYTACKENWNCMQCLHPHNLSQAILDQCKTSCALMEQQHYVDQTSECFSSPSYLRIFFIIFIVTFLIGLLKVLIIRQVILQWNSNKIKSSSDYRVSASKKDKLILQSVCTRAVTYRREKPEEIKMDISKLNAHETFRCNF
notes: whole, on cells
no binding (tested: 1000 nM): all assays above
